In the supplement of paper PMC9112550, “Optimization of the antimicrobial peptide Bac7 by deep mutational scanning” (BMC Biology, 2022):

Each sequence was assayed on Escherichia coli TOP10 (assay: shrunken log2 fold change of peptide-encoding DNA abundance (4.5 h post-induction vs induction); higher = less antimicrobial activity (less host growth inhibition)). Conditions: time post-induction: 4.5 h; library: site-saturation at positions 5, 18, 19, 20.
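Further: peptides expressed intracellularly from a pBAD plasmid library in pooled LB shake-flask culture, induced with 0.3% L-arabinose, DNA abundance read by NGS, three biological replicates, DESeq2 with apeglm shrinkage.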

Row | Sequence | shrunken log2 fold change
1 | RRIRHRPPRLPRPRPRPEFVPRP | 0.02
2 | RRIRHRPPRLPRPRPRPEGIPRP | 0.0992
3 | RRIRHRPPRLPRPRPRPEGWPRP | 0.695
4 | RRIRHRPPRLPRPRPRPEHAPRP | -0.0423
5 | RRIRHRPPRLPRPRPRPEIAPRP | -0.0585
6 | RRIRHRPPRLPRPRPRPEIWPRP | -0.0396
7 | RRIRHRPPRLPRPRPRPEKNPRP | -0.0893
8 | RRIRHRPPRLPRPRPRPEMNPRP | -0.0935
9 | RRIRHRPPRLPRPRPRPEPWPRP | 0.171
10 | RRIRHRPPRLPRPRPRPEPYPRP | 0.0514
11 | RRIRHRPPRLPRPRPRPEQPPRP | -0.0288
12 | RRIRHRPPRLPRPRPRPEQYPRP | -0.224
13 | RRIRHRPPRLPRPRPRPEWQPRP | 0.145
14 | RRIRHRPPRLPRPRPRPEYAPRP | 0.0953
15 | RRIRHRPPRLPRPRPRPEYTPRP | -0.0512
16 | RRIRHRPPRLPRPRPRPFAEPRP | -0.0659
17 | RRIRHRPPRLPRPRPRPFDLPRP | -0.211
18 | RRIRHRPPRLPRPRPRPFEAPRP | -0.214
19 | RRIRHRPPRLPRPRPRPFEFPRP | -0.0195
20 | RRIRHRPPRLPRPRPRPFEYPRP | -0.219
21 | RRIRHRPPRLPRPRPRPFFAPRP | 0.0898
22 | RRIRHRPPRLPRPRPRPFFIPRP | -0.393
23 | RRIRHRPPRLPRPRPRPFGEPRP | -0.0377
24 | RRIRHRPPRLPRPRPRPFGFPRP | -0.0586
25 | RRIRHRPPRLPRPRPRPFGIPRP | -0.0887

Row | Sequence | shrunken log2 fold change
26 | RRIRHRPPRLPRPRPRPFGWPRP | 0.0661
27 | RRIRHRPPRLPRPRPRPFNAPRP | -0.495
28 | RRIRHRPPRLPRPRPRPFPWPRP | -0.0989
29 | RRIRHRPPRLPRPRPRPFRNPRP | -0.221
30 | RRIRHRPPRLPRPRPRPFRVPRP | -0.371
31 | RRIRHRPPRLPRPRPRPFSHPRP | -0.254
32 | RRIRHRPPRLPRPRPRPFVKPRP | -1.48
33 | RRIRHRPPRLPRPRPRPFVYPRP | -0.186
34 | RRIRHRPPRLPRPRPRPFWAPRP | 0.245
35 | RRIRHRPPRLPRPRPRPFYCPRP | -0.946
36 | RRIRHRPPRLPRPRPRPFYPPRP | -0.623
37 | RRIRHRPPRLPRPRPRPFYVPRP | 2.94
38 | RRIRHRPPRLPRPRPRPGCIPRP | -1.21
39 | RRIRHRPPRLPRPRPRPGCNPRP | -0.175
40 | RRIRHRPPRLPRPRPRPGDLPRP | 0.163
41 | RRIRHRPPRLPRPRPRPGEEPRP | 0.03
42 | RRIRHRPPRLPRPRPRPGEMPRP | 0.257
43 | RRIRHRPPRLPRPRPRPGFDPRP | 0.105
44 | RRIRHRPPRLPRPRPRPGFSPRP | -0.236
45 | RRIRHRPPRLPRPRPRPGGNPRP | 0.00148
46 | RRIRHRPPRLPRPRPRPGHKPRP | 0.0956
47 | RRIRHRPPRLPRPRPRPGISPRP | -0.315
48 | RRIRHRPPRLPRPRPRPGKIPRP | -0.769
49 | RRIRHRPPRLPRPRPRPGKKPRP | -0.0335
50 | RRIRHRPPRLPRPRPRPGMAPRP | 0.0763

Row | Sequence | shrunken log2 fold change
51 | RRIRHRPPRLPRPRPRPGNDPRP | -0.583
52 | RRIRHRPPRLPRPRPRPGNYPRP | 0.113
53 | RRIRHRPPRLPRPRPRPGPHPRP | -0.14
54 | RRIRHRPPRLPRPRPRPGPWPRP | 0.166
55 | RRIRHRPPRLPRPRPRPGQGPRP | -0.104
56 | RRIRHRPPRLPRPRPRPGSCPRP | -0.108
57 | RRIRHRPPRLPRPRPRPGSQPRP | 0.0187
58 | RRIRHRPPRLPRPRPRPGVFPRP | 0.0667
59 | RRIRHRPPRLPRPRPRPGWLPRP | 0.0986
60 | RRIRHRPPRLPRPRPRPGWRPRP | 0.232
61 | RRIRHRPPRLPRPRPRPGYEPRP | -0.454
62 | RRIRHRPPRLPRPRPRPHCCPRP | -0.156
63 | RRIRHRPPRLPRPRPRPHCVPRP | -0.01
64 | RRIRHRPPRLPRPRPRPHDLPRP | 0.0509
65 | RRIRHRPPRLPRPRPRPHDMPRP | -0.291
66 | RRIRHRPPRLPRPRPRPHEQPRP | -0.0118
67 | RRIRHRPPRLPRPRPRPHEYPRP | -0.293
68 | RRIRHRPPRLPRPRPRPHFIPRP | -0.499
69 | RRIRHRPPRLPRPRPRPHFNPRP | -0.42
70 | RRIRHRPPRLPRPRPRPHGKPRP | -0.038
71 | RRIRHRPPRLPRPRPRPHGQPRP | 0.0111
72 | RRIRHRPPRLPRPRPRPHGVPRP | 0.00355
73 | RRIRHRPPRLPRPRPRPHHCPRP | -0.152
74 | RRIRHRPPRLPRPRPRPHHFPRP | -0.0916
75 | RRIRHRPPRLPRPRPRPHHWPRP | -0.156
